Results published in US20190030126A1, “Inhibitors of the Interaction BCL-2 L10 / IP3 Receptors” (Universite Claude Bernard - Lyon 1, priority 2016, published 2019).
Several values for one entry are separate records, joined by “and”; a condition that tells them apart may be missing. Equal entries are not always repeated. No end group written: not given here.

Assays:
[1] = target: endogenous protein Bcl-2 L10/Nrh (in cells) (human) (UniProt Q9HD36); assay: cell-based or functional assay
[2] = target: T1, interaction between the endogenous proteins Nrh and IP3R1 (Homo sapiens, UniProt Q9HD36); assay: Proximity ligation assay (PLA) of endogenous Nrh and IP3R1 in MDA-MB-231 cells; assay type: cell-based; details: for inhibition of the Nrh/IP3R1 interaction relative to the limit value: conclusion of the PLA experiment; for percentage inhibition of the Nrh/IP3R1 interaction: with 488 nm flash
T1 construct: endogenous in cells; host or cells: MDA-MB-231
T1 sequence (Q9HD36 11-204): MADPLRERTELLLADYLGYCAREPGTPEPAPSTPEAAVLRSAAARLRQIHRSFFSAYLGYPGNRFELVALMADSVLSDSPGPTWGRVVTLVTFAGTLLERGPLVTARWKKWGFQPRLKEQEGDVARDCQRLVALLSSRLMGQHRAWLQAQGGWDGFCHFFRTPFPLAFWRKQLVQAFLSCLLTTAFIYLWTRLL
Description: (A) Proximity ligation assay (PLA) experiments allowing for the detection of the interaction between the endogenous proteins Nrh and IP3R1 in MDA-MB-231 cells.
The MDA-MB-231 cells are incubated for 4 h with the peptide TAT Nrh-1-23 (SEQ ID NO. 4) or the control peptide TAT-Nrh 1-23 Y16F (SEQ ID NO 12, 14 and 6). After 3 washes of the cells, a 488 nm laser is used to excite the fluorophore (FITC) present in the endosomes, rupture the endosomal membrane and release the TAT-FITC peptides into the cytosol. The cells are incubated for 12 h then fixed, and the interaction between Nrh and IP3R1 is quantified by PLA using a rabbit anti-Nrh primary antibody and a mouse anti-IP3R1 primary antibody. This step is followed by incubation with a mixture of anti-rabbit and anti-mouse secondary antibodies, each coupled to a complementary nucleotide probe. A step of ligation then amplification is then carried out in the presence of fluorescent nucleotides, making it possible to amplify a specific signal in the case of spatial proximity of the probes. The fluorescence signal, in which each dot corresponds to an interaction in the cell, is recorded by means of a Nikon NiE fluorescence microscope. The images are quantified by the Image J software, and the interaction score is represented on the graph as number of dots per cell (N=3).

[3] = target: endogenous protein Bcl-2 L10/Nrh (in cells) (human) (UniProt Q9HD36); assay: proximity ligation assay of endogenous Nrh and IP3R1, MDA-MB-231 cells; as a function of the negative control
Flag-Nrh (Bcl-2 L10) = target: T2, Flag-Nrh (Bcl-2 L10) (Homo sapiens, UniProt Q9HD36); assay: Streptavidin pull-down with biotin-labelled peptide, HeLa extracts expressing Flag-Nrh; assay type: binding; details: 5 μg of biotin-labelled peptide
T2 construct: expressed in transfected cells; host or cells: HeLa (cellular extracts)
T2 sequence (Q9HD36 1-204): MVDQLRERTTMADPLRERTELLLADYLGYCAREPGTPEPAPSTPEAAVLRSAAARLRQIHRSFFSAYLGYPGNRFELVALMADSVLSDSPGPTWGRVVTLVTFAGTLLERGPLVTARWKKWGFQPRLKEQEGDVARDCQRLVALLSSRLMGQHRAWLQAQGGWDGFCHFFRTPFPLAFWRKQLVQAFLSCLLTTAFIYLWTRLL
Description: (§1) (A) Streptavidin pull-down in HeLa cells transfected with either empty vector pCS2+, Flag-Nrh, HA-hBD or HA-BECN1, which cellular extracts were incubated or not with 5 μg of biotin-labelled Nrh 1-23 peptide.
(§2) (B) Streptavidin pull-down in HeLa cells transfected with either empty vector pCS2+, Flag-Nrh, or Flag-Nrz, which cellular extracts were incubated with 5 μg of biotin-labelled Nrh 1-23 peptide or Nrh 1-23 R6A Y16F double mutant peptide.
(§3) (A) HeLa cells were transfected with either empty vector pCS2+, Flag-Nrh, HA-hBD or HA-Beclin1 (referred to as HA-BECN1), a protein well known for its binding capacities to Nrh, then cellular extracts were incubated or not with 5 μg of biotin-labelled Nrh 1-23 wild-type peptide. Streptavidin is used for pulling-down the complexes comprising biotin-labelled Nrh peptide.
(§4) Streptavidin is used for pulling-down the complexes comprising biotin-labelled Nrh peptide.

[4] = target: T3, interaction of Bcl-2 L10/Nrh with the BD domain of the receptor IP3R1 (Homo sapiens, UniProt Q9HD36); assay: Immunoprecipitation (anti-HA) of the Flag-Nrh / HA-hBD interaction in HeLa cells co-transfected with peptide plasmids; assay type: cell-based; details: peptides Flag-tagged, fused to cytochrome b5 domain, plasmid ratio 1:2
T3 construct: expressed in transfected cells; host or cells: HeLa
T3 sequence (Q9HD36 11-204): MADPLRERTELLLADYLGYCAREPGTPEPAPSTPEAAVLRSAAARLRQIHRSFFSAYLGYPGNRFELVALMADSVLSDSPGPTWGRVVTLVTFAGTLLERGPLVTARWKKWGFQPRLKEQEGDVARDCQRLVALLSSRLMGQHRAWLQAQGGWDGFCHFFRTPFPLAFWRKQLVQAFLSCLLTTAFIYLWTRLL
Description: (B) Quantification of the Nrh-IP3R1 interaction by immunoprecipitation experiments with anti-HA antibodies in HeLa cells transfected with plasmids coding for Flag-Nrh, HA-hBD and the different point mutants of the peptides Nrh 1-23 Flag-tagged with a ratio of 1:2 (N=3).
FIG. 5B presents the ability of these different peptides to inhibit the interaction of Bcl-2 L10/Nrh with the BD domain of the receptor IP3R1. This interaction is quantified by the immunoprecipitation technique, the BD domain being tagged with an HA epitope and the protein Bcl-2 L10/Nrh being tagged with a Flag epitope.
HeLa cells are transfected with plasmids coding for Flag-Nrh, HA-hBD and the different point mutants of the peptide Nrh 1-23 Flag-tagged with a ratio of 1:2, and immunoprecipitation is carried out with an anti-HA antibody.

HeLa cells = assay: Test of apoptosis (SR-FLICA, caspase activity) in transfected HeLa cells treated with thapsigargin; assay type: cell-based, human; details: 10 μM thapsigargin for 24 h; for potentiation of thapsigargin effect on caspase activity: HeLa cells transfected with peptide construct (fused to Cb5)
Description: (B) Test of apoptosis (SR-FLICA) in response to 10 μM of thapsigargin for 24 h in HeLa cells transfected with the empty vector pCS2+ or the constructs coding for Nrh-WT (wild-type), Nrh-ActA, Nrh-cb5, Nrh-dTM or Nrh-dBH4 (N=3). ***, p<0.001;**, p<0.01; n.s. p>0.1 (Student t-test).
(C) Test of apoptosis (SR-FLICA) in response to 10 μM of thapsigargin for 24 h in HeLa cells transfected with the empty vector pCS2+ or the constructs coding for the peptides Nrh 1-23, Nrh 1-23 Y16F or Nrh 1-23 C20A (N=3). ***, p<0.001;**, p<0.01; n.s. p>0.1 (Student t-test).
The effects of these various proteins were observed after transfection of HeLa cells by the empty vector pCS2+ or with the constructs coding for Nrh, Nrh-ActA, Nrh-cb5, dTM or dBH4.

Flag-Nrz = assay: Streptavidin pull-down with biotin-labelled peptide, HeLa extracts expressing Flag-Nrz; assay type: binding, zebrafish; details: 5 μg of biotin-labelled peptide
Description: as §2, §4

[5] = target: T4, Nrh homodimer (Flag-Nrh / HA-Nrh) (Homo sapiens, UniProt Q9HD36); assay: Co-immunoprecipitation (anti-HA) of Flag-Nrh and HA-Nrh: Nrh homodimerisation; assay type: binding; details: incubation with the peptide
T4 construct: the ability of the whole protein Nrh (Bcl-2 L10) to dimerise
T4 sequence (Q9HD36 11-204): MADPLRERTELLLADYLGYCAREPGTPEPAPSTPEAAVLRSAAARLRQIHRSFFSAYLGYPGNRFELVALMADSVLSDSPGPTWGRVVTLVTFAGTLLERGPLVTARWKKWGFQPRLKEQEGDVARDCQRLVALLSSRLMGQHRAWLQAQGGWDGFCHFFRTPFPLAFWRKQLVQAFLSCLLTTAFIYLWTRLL
Description: Quantification of the interaction between Flag-Nrh and HA-Nrh using co-immunoprecipitation with anti-HA antibody.
FIG. 7 illustrates the quantification of the interaction between Flag-Nrh and HA-Nrh using co-immunoprecipitation with anti-HA antibody. Formation of a Nrh homodimer is observed.

[6] = target: T5, HA-hBD (IP3 binding domain of IP3R1) (Homo sapiens, UniProt Q14643); assay: Streptavidin pull-down with biotin-labelled peptide, HeLa extracts expressing HA-hBD; details: 5 μg of biotin-labelled peptide
T5 construct: extending from residue 226 to residue 565 in the human protein; expressed in transfected cells; host or cells: HeLa (cellular extracts)
T5 sequence (Q14643 226-565): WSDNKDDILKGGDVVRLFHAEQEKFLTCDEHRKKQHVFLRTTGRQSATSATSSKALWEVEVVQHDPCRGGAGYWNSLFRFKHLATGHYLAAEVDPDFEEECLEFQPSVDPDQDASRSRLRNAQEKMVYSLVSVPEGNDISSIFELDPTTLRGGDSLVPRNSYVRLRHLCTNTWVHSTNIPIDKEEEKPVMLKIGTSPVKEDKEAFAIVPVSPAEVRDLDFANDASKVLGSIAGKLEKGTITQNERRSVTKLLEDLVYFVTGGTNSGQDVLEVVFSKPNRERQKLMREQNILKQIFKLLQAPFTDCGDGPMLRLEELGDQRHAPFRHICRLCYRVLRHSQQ
Description: as §1, §3

[7] = target: endogenous protein Bcl-2 L10/Nrh (in cells) (human) (UniProt Q9HD36); assay: proximity ligation assay of endogenous Nrh and IP3R1, MDA-MB-231 cells; against the vehicle control
[8] = target: endogenous protein Bcl-2 L10/Nrh (in cells) (human) (UniProt Q9HD36); assay: proximity ligation assay of endogenous Nrh and IP3R1, MDA-MB-231 cells; against the no-flash control
[9] = target: T6, HA-hBD (IP3 ligand binding domain of human IP3R1 tagged with an HA epitope) (human, UniProt Q14643-2 226-565, limits assumed); assay: streptavidin pull-down from extracts of transfected HeLa cells
T6 construct: Expressed in HeLa cells; also called HA-hBD IP3R1; BD domain of the receptor IP3R1
T6 sequence (Q14643 other isoform, or with tags, fused parts or gaps limits assumed): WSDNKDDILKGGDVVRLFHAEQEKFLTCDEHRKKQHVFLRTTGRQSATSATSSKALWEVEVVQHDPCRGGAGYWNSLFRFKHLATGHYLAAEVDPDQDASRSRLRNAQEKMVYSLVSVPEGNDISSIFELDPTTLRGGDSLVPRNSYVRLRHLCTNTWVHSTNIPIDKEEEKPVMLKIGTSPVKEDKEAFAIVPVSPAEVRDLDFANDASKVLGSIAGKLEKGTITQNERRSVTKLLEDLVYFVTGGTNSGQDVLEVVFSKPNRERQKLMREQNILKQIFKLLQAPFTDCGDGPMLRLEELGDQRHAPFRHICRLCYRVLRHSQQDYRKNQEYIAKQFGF

[10] = 488 nm flash used to release the peptide

Molecule: peptide Nrh 1-23 fused at the C-terminal end with the cytochrome b5 targeting domain, Flag-tagged
- caspase activity (SR-FLICA apoptosis test), HeLa cells, 10 µM thapsigargin for 24 h [1]: 2 fold

Molecule: RKKRRQRRRGGSGGADPLRERTELLLADYLGYCARE [TAT Nrh 1-23]
- PLA interaction score Nrh/IP3R1 [2, 10]: 11±1 dots per cell
- inhibition of the Nrh/IP3R1 interaction relative to the limit value [2]: at least 30%
- PLA interaction score Nrh/IP3R1 ([2]; in the absence of 488 nm flash (no release of the peptides into the cytosol)): 87±6 dots per cell
- percentage inhibition of the Nrh/IP3R1 interaction ([2]; negative control = TAT Nrh 1-23 without flash (87 dots per cell)): 87%
- percentage inhibition of the Nrh/IP3R1 interaction ([2]; negative control = vehicle (80 dots per cell)): 86%

Molecule: peptide TAT-Nrh 1-23 (TAT-spacer-domain of binding to IP3Rs without methionine), FITC-coupled
- percentage inhibition of the Nrh/IP3R1 interaction [3]: 86% and 87%

Molecule: Nrh 1-23 R6A Y16F: biotin-labelled Nrh 1-23 R6A Y16F double mutant peptide (MADPLAERTELLLADFLGYCARE; also: biotin-labelled (position not given here))
- interaction with Nrh (pull-down) (Flag-Nrh (Bcl-2 L10)): reduced interaction with Nrh

Molecule: MADPLRERTELLLADFLGYCARE (Synthetic peptide Y16F) [Nrh Y16F, point mutant of Nrh 1-23, non-functional]
- ability to inhibit the Nrh/IP3R1 BD interaction (Flag-Nrh band on Western blot after anti-HA immunoprecipitation) [4]: still visible, albeit faintly

Molecule: MADPLAERTELLLADYLGYCARE (Synthetic peptide Peptide R6A) [Nrh R6A, point mutant of Nrh 1-23, non-functional]
- ability to inhibit the Nrh/IP3R1 BD interaction (Flag-Nrh band on Western blot after anti-HA immunoprecipitation) [4]: still visible, albeit faintly

Molecule: TAT Nrh Y16F: combination of TAT (SEQ ID NO. 12), a spacer (SEQ ID NO. 14) and SEQ ID NO. 6 without the methionine; control outside the invention (RKKRRQRRRGGSGGADPLRERTELLLADFLGYCARE)
- PLA interaction score Nrh/IP3R1 [2, 10]: 65±5 dots per cell
- inhibition of the Nrh/IP3R1 interaction relative to the limit value [2]: < 30%

Molecule: C/C=C(/C)C(=O)O[C@H]1C(C)=C2[C@H]([C@@H]1OC(=O)CCCCCCC)[C@@](C)(OC(C)=O)C[C@H](OC(=O)CCC)[C@@]1(O)[C@H]2OC(=O)[C@@]1(C)O [thapsigargin, reference compound]
- caspase activity (HeLa cells; HeLa control cells (empty vector pCS2+)): greatly induced

Molecule: MADPLRERTELLLADYLGYCARE [Nrh 1-23]
- interaction with Nrz (pull-down) (Flag-Nrz): not Nrz
- prevention of Nrh homodimerisation [5]: can be prevented
- potentiation of thapsigargin effect on caspase activity (HeLa cells): virtually doubled
- interaction with Nrh (pull-down) (Flag-Nrh (Bcl-2 L10)): only able to interact with Nrh
- interaction with HA-hBD (pull-down) [6]: not with HA-hBD
- ability to inhibit the Nrh/IP3R1 BD interaction (Flag-Nrh band on Western blot after anti-HA immunoprecipitation) [4]: dissociate the Nrh/IP3R1 interaction

Molecule: control peptide TAT-Nrh 1-23 Y16F, FITC-coupled
- percentage inhibition of the Nrh/IP3R1 interaction [7]: 18.8%
- percentage inhibition of the Nrh/IP3R1 interaction [8]: 25%

Molecule: MADPLRERTELLLADYLGYAARE (Synthetic peptide C20A) [Nrh C20A, point mutant of Nrh 1-23, functional]
- potentiation of thapsigargin effect on caspase activity (HeLa cells): this effect is maintained
- ability to inhibit the Nrh/IP3R1 BD interaction (Flag-Nrh band on Western blot after anti-HA immunoprecipitation) [4]: dissociate the Nrh/IP3R1 interaction

Molecule: MADPLRERTELLLAAYLGYCARE (Synthetic peptide D15A) [Nrh D15A, point mutant of Nrh 1-23, functional]
- ability to inhibit the Nrh/IP3R1 BD interaction (Flag-Nrh band on Western blot after anti-HA immunoprecipitation) [4]: dissociate the Nrh/IP3R1 interaction

B1: biotin-labelled Nrh 1-23 wild-type peptide (peptide)
peptide: MADPLRERTELLLADYLGYCARE
modifications: also: biotin-labelled (position not given here)
notes: 3 (same without the first methionine); also called biotin-labelled Nrh 1-23 peptide
- binding result [9]: no binding (tested: 5 µg of biotin-labelled peptide)

B2: Bcl-2 L10/Nrh-WT: the human Bcl-2 L10/Nrh protein in its wild-type, whole form, expressed from a transfected construct (protein, UniProt Q9HD36 1-204, looked up)
chain: MVDQLRERTTMADPLRERTELLLADYLGYCAREPGTPEPAPSTPEAAVLRSAAARLRQIHRSFFSAYLGYPGNRFELVALMADSVLSDSPGPTWGRVVTLVTFAGTLLERGPLVTARWKKWGFQPRLKEQEGDVARDCQRLVALLSSRLMGQHRAWLQAQGGWDGFCHFFRTPFPLAFWRKQLVQAFLSCLLTTAFIYLWTRLL
modifications: full-length
notes: the human Bcl-2 L10/Nrh protein in its wild-type, whole form, expressed from a transfected construct
- effect on thapsigargin-induced caspase activity (apoptosis-blocking effect) (HeLa cells; HeLa cells overexpressing Nrh construct): reduced by half
